This is an account of results in patent CN108997499A (BEIJING CHEST HOSPITAL CAPITAL MEDICAL UNIV; BEIJING …, dated 2018).

The experiment deals with T1, PD-L1-his蛋白 (人PD-L1胞外区, his标签) (human, UniProt Q9NZQ7 19-238).
T1 construct: extracellular domain; also called PD-L1蛋白; PD-L1-his蛋白标准品; not shown: his tag
In words: sandwich ELISA, PD-L1 antibody as capture, biotinylated antibody X as detection, HRP-Streptavidin.

T1 sequence (Q9NZQ7 19-238): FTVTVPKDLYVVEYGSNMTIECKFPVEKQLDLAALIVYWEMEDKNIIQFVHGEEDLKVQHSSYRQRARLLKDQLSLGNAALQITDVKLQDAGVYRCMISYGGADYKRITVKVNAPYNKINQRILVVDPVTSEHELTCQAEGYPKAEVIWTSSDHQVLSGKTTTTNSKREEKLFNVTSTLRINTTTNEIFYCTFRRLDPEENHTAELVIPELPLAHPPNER

B1: 抗体X (非封阻型抗PD-L1抗体) (antibody, V domains shown)
VH: QVQLQQSGTELMKPGASVKISCKATGYTFSNYWIEWVKQRPGHGLEWIGEILPGSGNTNYNENFKGKATFTADTSSNTAYMQLSRLTSEDSAVYYCARERASTSWGQGTLVTVSA
VL: DIQMTQTTSSLSASLGDRVTITCSASQGISNYLNWYQQNPDGTVKLLIYYTSHLHSGVSSRFSGSGSGTDYSLTISNLEPEDIATYYCQQYVKLPWTFGGGTKLEIK
notes: Used biotin-labelled as the detection antibody; also called PD-L1抗体X; 第二抗体
Take B1: the binding result is “binds”.
